The supplement of paper PMC10724198
± gives the standard deviation of the averaged measurements.

Experiments:
Saccharomyces cerevisiae [1] = test: protein stability index of tFT-peptide fusion (C-terminal peptide) (PSI (0-1 scale)); higher = more stable (slower turnover)
Experimental: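 MPS profiling in S. cerevisiae of the tFT-X12 degron library: putative degron peptides plus stable controls, 12 aa, fused to the C-terminus of a sfGFP-mCherry timer. Cells are FACS-sorted into 8 mCherry/sfGFP bins and deep-sequenced. PSI runs from 0 (unstable) to 1 (stable). Backgrounds are wild type, das1Δ and doa10Δ at 30 °C, and wild type, das1Δ, cdc34-1 and cdc53-1 at 37 °C; 2-3 technical replicates each.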

Saccharomyces cerevisiae [2] = test: as above; settings: genetic background: wild type; temperature: 30 C
[3] = genetic background: cdc34-1, temperature: 37 C
[4] = genetic background: cdc53-1, temperature: 37 C
[5] = genetic background: das1 deletion, temperature: 30 C
[6] = genetic background: das1 deletion, temperature: 37 C
[7] = genetic background: doa10 deletion, temperature: 30 C
[8] = genetic background: wild type, temperature: 30 C
[9] = genetic background: wild type, temperature: 37 C
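Further: PSI is a weighted mean of sequencing reads over stability bins, variants kept only with over 10 reads, mCherry proximal and sfGFP distal, peptide attached via GGGS linker.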

| Sequence | protein stability index (Saccharomyces cerevisiae [1]; [3]) | protein stability index (Saccharomyces cerevisiae [1]; [4]) | protein stability index (Saccharomyces cerevisiae [1]; [5]) | protein stability index (Saccharomyces cerevisiae [1]; [6]) | protein stability index (Saccharomyces cerevisiae [1]; [7]) | protein stability index (Saccharomyces cerevisiae [1]; [8]) | protein stability index (Saccharomyces cerevisiae [1]; [9]) | protein stability index (Saccharomyces cerevisiae [2]) |
| --- | --- | --- | --- | --- | --- | --- | --- | --- |
| GVAFGLLVWLLG | 0.432 ± 0.021 | 0.509 ± 0.014 | 0.357 ± 0.026 | 0.5307 ± 0.0018 | 0.304 ± 0.02 | 0.326 ± 0.033 | 0.484 ± 0.0068 | 0.378 ± 0.071 |
| GVGAISLGFSWL | 0.734 ± 0.021 | 0.763 ± 0.013 | 0.658 ± 0.019 | 0.7855 ± 0.0022 | 0.652 ± 0.03 | 0.67 ± 0.027 | 0.7491 ± 0.0035 | 0.717 ± 0.013 |
| GWLRHGWWRTVG | 0.605 ± 0.024 | 0.709 ± 0.0069 | 0.658 ± 0.024 | 0.734 ± 0.011 | 0.152 ± 0.0082 | 0.17 ± 0.018 | 0.4286 ± 0.00089 | 0.313 ± 0.0015 |
| GWMLVVWCGVFG | 0.174 ± 0.01 | 0.235 ± 0.0027 | 0.216 ± 0.035 | 0.338 ± 0.011 | 0.192 ± 0.011 | 0.195 ± 0.031 | 0.295 ± 0.0069 | 0.275 ± 0.03 |
| GYAFPPPHRVRT | 0.654 ± 0.073 | 0.7419 ± 0.0073 | 0.669 ± 0.023 | 0.7288 ± 0.0051 | 0.6865 ± 0.0043 | 0.652 ± 0.029 | 0.702 ± 0.016 | 0.741 ± 0.025 |
| GYLVFTLRWLRG | 0.384 ± 0.038 | 0.491 ± 0.035 | 0.343 ± 0.027 | 0.507 ± 0.016 | 0.271 ± 0.026 | 0.305 ± 0.02 | 0.461 ± 0.0085 | 0.461 ± 0.06 |
| GYTVYARRLIMC | 0.215 ± 0.0094 | 0.265 ± 0.008 | 0.236 ± 0.024 | 0.382 ± 0.021 | 0.0746 ± 0.0026 | 0.0799 ± 0.0087 | 0.0893 ± 0.024 | 0.146 ± 0.015 |
| GYVVYRRYILIR | 0.0341 ± 0.0027 | 0.0546 ± 0.03 | 0.111 ± 0.017 | 0.131 ± 0.026 | 0.219 ± 0.0094 | 0.0783 ± 0.012 | 0.0969 ± 0.011 | 0.141 ± 0.0084 |
| HCSRMIIIFLFL | 0.312 ± 0.044 | 0.425 ± 0.042 | 0.276 ± 0.045 | 0.488 ± 0.039 | 0.303 ± 0.061 | 0.282 ± 0.013 | 0.514 ± 0.038 | 0.371 ± 0.035 |
| HLYITGIIRKIT | 0.519 ± 0.027 | 0.619 ± 0.11 | 0.668 ± 0.054 | 0.695 ± 0.016 | 0.0875 ± 0.0033 | 0.165 ± 0.024 | 0.126 ± 0.029 | 0.179 ± 0.036 |
| HMVSWTVVRSLM | 0.652 ± 0.065 | 0.7014 ± 0.004 | 0.603 ± 0.019 | 0.76 ± 0.026 | 0.138 ± 0.029 | 0.144 ± 0.0044 | 0.2582 ± 0.00046 | 0.316 ± 0.011 |
| HYTSFAVPPLVY | 0.524 ± 0.037 | 0.476 ± 0.025 | 0.366 ± 0.018 | 0.5275 ± 0.0048 | 0.3404 ± 0.0026 | 0.376 ± 0.018 | 0.487 ± 0.011 | 0.481 ± 0.024 |
| IFFFQFLWFCLS | 0.296 ± 0.0037 | 0.295 ± 0.0059 | 0.305 ± 0.036 | 0.4186 ± 0.0012 | 0.243 ± 0.0098 | 0.206 ± 0.028 | 0.339 ± 0.015 | 0.315 ± 0.038 |
| IFRLVRVVRSSS | 0.669 ± 0.015 | 0.688 ± 0.037 | 0.6 ± 0.025 | 0.714 ± 0.05 | 0.19 ± 0.036 | 0.236 ± 0.03 | 0.476 ± 0.011 | 0.386 ± 0.031 |
| IIAVFRCCLRVY | 0.052 ± 0.0087 | 0.12 ± 0.022 | 0.131 ± 0.034 | 0.216 ± 0.003 | 0.061 ± 0.02 | 0.0911 ± 0.025 | 0.152 ± 0.012 | 0.168 ± 0.076 |
| IIFWMWVIIRVY | 0.121 ± 0.11 | 0.0686 ± 0.034 | 0.142 ± 0.04 | 0.205 ± 0.0091 | 0.114 ± 0.04 | 0.108 ± 0.039 | 0.116 ± 0.092 | 0.139 ± 0.044 |
| IIPAFPFAFLAF | 0.527 ± 0.0088 | 0.526 ± 0.018 | 0.415 ± 0.026 | 0.565 ± 0.0086 | 0.432 ± 0.0046 | 0.407 ± 0.017 | 0.541 ± 0.0073 | 0.489 ± 0.0067 |
| IISPLRLLPLFF | 0.634 ± 0.018 | 0.73 ± 0.013 | 0.61 ± 0.039 | 0.724 ± 0.0088 | 0.271 ± 0.011 | 0.298 ± 0.03 | 0.515 ± 0.0086 | 0.388 ± 0.017 |
| IKERRKVSMKVY | 0.639 ± 0.023 | 0.688 ± 0.02 | 0.519 ± 0.035 | 0.677 ± 0.018 | 0.321 ± 0.009 | 0.373 ± 0.015 | 0.557 ± 0.032 | 0.474 ± 0.022 |
| ILFCVRIGLFWT | 0.0461 ± 0.0067 | 0.135 ± 0.0014 | 0.137 ± 0.03 | 0.24 ± 0.0035 | 0.146 ± 0.019 | 0.128 ± 0.03 | 0.179 ± 0.014 | 0.219 ± 0.051 |

| Sequence | protein stability index (Saccharomyces cerevisiae [1]; [3]) | protein stability index (Saccharomyces cerevisiae [1]; [4]) | protein stability index (Saccharomyces cerevisiae [1]; [5]) | protein stability index (Saccharomyces cerevisiae [1]; [6]) | protein stability index (Saccharomyces cerevisiae [1]; [7]) | protein stability index (Saccharomyces cerevisiae [1]; [8]) | protein stability index (Saccharomyces cerevisiae [1]; [9]) | protein stability index (Saccharomyces cerevisiae [2]) |
| --- | --- | --- | --- | --- | --- | --- | --- | --- |
| INGINHKIIKIV | 0.44 ± 0.025 | 0.721 ± 0.042 | 0.65 ± 0.036 | 0.72 ± 0.013 | 0.0842 ± 0.014 | 0.0896 ± 0.017 | 0.0909 ± 0.0048 | 0.155 ± 0.025 |
| INILVIWRKNHV | 0.463 ± 0.00091 | 0.671 ± 0.041 | 0.5213 ± 0.0049 | 0.662 ± 0.014 | 0.0744 ± 0.0074 | 0.0776 ± 0.024 | 0.114 ± 0.021 | 0.129 ± 0.048 |
| IPLGLTLVQCLY | 0.614 ± 0.03 | 0.61 ± 0.029 | 0.491 ± 0.042 | 0.60744 ± 0.00017 | 0.4357 ± 0.00058 | 0.477 ± 0.009 | 0.576 ± 0.0069 | 0.53 ± 0.053 |
| IREYSIRIKRLQ | 0.623 ± 0.062 | 0.722 ± 0.052 | 0.64 ± 0.041 | 0.719 ± 0.022 | 0.138 ± 0.016 | 0.146 ± 0.04 | 0.318 ± 0.058 | 0.33 ± 0.036 |
| IRFFLIVFCFLR | 0.157 ± 0.015 | 0.131 ± 0.017 | 0.251 ± 0.019 | 0.286 ± 0.041 | 0.273 ± 0.0057 | 0.203 ± 0.025 | 0.226 ± 0.022 | 0.284 ± 0.021 |
| ISATYSYIPVVG | 0.502 ± 0.0071 | 0.496 ± 0.011 | 0.346 ± 0.024 | 0.541 ± 0.012 | 0.32388 ± 3.1e-05 | 0.378 ± 0.023 | 0.507 ± 0.0073 | 0.455 ± 0.038 |
| ISVRKTFLIVLC | 0.331 ± 0.031 | 0.351 ± 0.018 | 0.266 ± 0.047 | 0.486 ± 0.01 | 0.152 ± 0.015 | 0.156 ± 0.013 | 0.279 ± 0.025 | 0.232 ± 0.022 |
| IVFLPVLLWFSV | 0.389 ± 0.0069 | 0.411 ± 0.0085 | 0.333 ± 0.032 | 0.474 ± 0.0013 | 0.373 ± 0.019 | 0.297 ± 0.035 | 0.442 ± 0.0084 | 0.407 ± 0.015 |
| IVTSFVSPVYIC | 0.396 ± 0.035 | 0.5353 ± 0.003 | 0.456 ± 0.017 | 0.634 ± 0.055 | 0.0637 ± 0.023 | 0.0746 ± 0.014 | 0.0794 ± 0.021 | 0.12 ± 0.029 |
| IWVFSVTGWCGC | 0.501 ± 0.0055 | 0.589 ± 0.018 | 0.401 ± 0.022 | 0.55 ± 0.008 | 0.3804 ± 0.0007 | 0.417 ± 0.019 | 0.532 ± 0.016 | 0.452 ± 0.024 |
| IYITFQIYVSDM | 0.104 ± 0.018 | 0.172 ± 0.0076 | 0.161 ± 0.019 | 0.267 ± 0.0076 | 0.0912 ± 0.04 | 0.127 ± 0.0083 | 0.244 ± 0.032 | 0.229 ± 0.018 |
| IYLLLFFFSFSA | 0.365 ± 0.032 | 0.449 ± 0.053 | 0.376 ± 0.017 | 0.5104 ± 0.0037 | 0.3328 ± 6e-05 | 0.348 ± 0.029 | 0.457 ± 0.024 | 0.3914 ± 0.0012 |
| KKKQAILRTLKI | 0.681 ± 0.079 | 0.74 ± 0.026 | 0.663 ± 0.049 | 0.697 ± 0.037 | 0.177 ± 0.045 | 0.197 ± 0.0073 | 0.417 ± 0.013 | 0.406 ± 0.0082 |
| KKKTKYSKDKLC | 0.607 ± 0.03 | 0.696 ± 0.025 | 0.662 ± 0.036 | 0.723 ± 0.021 | 0.191 ± 0.028 | 0.217 ± 0.013 | 0.456 ± 0.04 | 0.343 ± 0.035 |
| KKTKKTMIIKTT | 0.693 ± 0.066 | 0.706 ± 0.027 | 0.6314 ± 0.005 | 0.745 ± 0.0037 | 0.33 ± 0.021 | 0.369 ± 0.04 | 0.6051 ± 0.0008 | 0.463 ± 0.0091 |
| KLKLWSIIKNNA | 0.686 ± 0.06 | 0.749 ± 0.021 | 0.658 ± 0.022 | 0.745 ± 0.015 | 0.181 ± 0.008 | 0.25 ± 0.05 | 0.484 ± 0.053 | 0.385 ± 0.03 |
| KLMGWFVGVVAR | 0.494 ± 0.0073 | 0.49 ± 0.019 | 0.355 ± 0.025 | 0.535 ± 0.011 | 0.323 ± 0.0045 | 0.351 ± 0.039 | 0.517 ± 0.033 | 0.442 ± 0.015 |
| KLVFLLCLNKVF | 0.51474 ± 0.00047 | 0.5887 ± 0.0014 | 0.439 ± 0.017 | 0.63 ± 0.0047 | 0.173 ± 0.018 | 0.199 ± 0.013 | 0.29 ± 0.0089 | 0.243 ± 0.037 |
| KRKKHKRKLVIC | 0.611 ± 0.03 | 0.674 ± 0.025 | 0.612 ± 0.012 | 0.732 ± 0.012 | 0.14 ± 0.027 | 0.154 ± 0.045 | 0.148 ± 0.05 | 0.265 ± 0.043 |
